In patent US20060024723A1 one finds reflectance signal data, which are given here for 1 substance.

The experiment concerns the target oncofetal fibronectin (human) (UniProt P02751). The experiment can be described thus: lateral flow sandwich; FDC-6 blue latex conjugate and immobilised goat anti-fibronectin; TLiIQ reflectance reader. The conditions noted are these: scale: reflectance signal.
UniProt P02751, sequence (P02751 32-2477): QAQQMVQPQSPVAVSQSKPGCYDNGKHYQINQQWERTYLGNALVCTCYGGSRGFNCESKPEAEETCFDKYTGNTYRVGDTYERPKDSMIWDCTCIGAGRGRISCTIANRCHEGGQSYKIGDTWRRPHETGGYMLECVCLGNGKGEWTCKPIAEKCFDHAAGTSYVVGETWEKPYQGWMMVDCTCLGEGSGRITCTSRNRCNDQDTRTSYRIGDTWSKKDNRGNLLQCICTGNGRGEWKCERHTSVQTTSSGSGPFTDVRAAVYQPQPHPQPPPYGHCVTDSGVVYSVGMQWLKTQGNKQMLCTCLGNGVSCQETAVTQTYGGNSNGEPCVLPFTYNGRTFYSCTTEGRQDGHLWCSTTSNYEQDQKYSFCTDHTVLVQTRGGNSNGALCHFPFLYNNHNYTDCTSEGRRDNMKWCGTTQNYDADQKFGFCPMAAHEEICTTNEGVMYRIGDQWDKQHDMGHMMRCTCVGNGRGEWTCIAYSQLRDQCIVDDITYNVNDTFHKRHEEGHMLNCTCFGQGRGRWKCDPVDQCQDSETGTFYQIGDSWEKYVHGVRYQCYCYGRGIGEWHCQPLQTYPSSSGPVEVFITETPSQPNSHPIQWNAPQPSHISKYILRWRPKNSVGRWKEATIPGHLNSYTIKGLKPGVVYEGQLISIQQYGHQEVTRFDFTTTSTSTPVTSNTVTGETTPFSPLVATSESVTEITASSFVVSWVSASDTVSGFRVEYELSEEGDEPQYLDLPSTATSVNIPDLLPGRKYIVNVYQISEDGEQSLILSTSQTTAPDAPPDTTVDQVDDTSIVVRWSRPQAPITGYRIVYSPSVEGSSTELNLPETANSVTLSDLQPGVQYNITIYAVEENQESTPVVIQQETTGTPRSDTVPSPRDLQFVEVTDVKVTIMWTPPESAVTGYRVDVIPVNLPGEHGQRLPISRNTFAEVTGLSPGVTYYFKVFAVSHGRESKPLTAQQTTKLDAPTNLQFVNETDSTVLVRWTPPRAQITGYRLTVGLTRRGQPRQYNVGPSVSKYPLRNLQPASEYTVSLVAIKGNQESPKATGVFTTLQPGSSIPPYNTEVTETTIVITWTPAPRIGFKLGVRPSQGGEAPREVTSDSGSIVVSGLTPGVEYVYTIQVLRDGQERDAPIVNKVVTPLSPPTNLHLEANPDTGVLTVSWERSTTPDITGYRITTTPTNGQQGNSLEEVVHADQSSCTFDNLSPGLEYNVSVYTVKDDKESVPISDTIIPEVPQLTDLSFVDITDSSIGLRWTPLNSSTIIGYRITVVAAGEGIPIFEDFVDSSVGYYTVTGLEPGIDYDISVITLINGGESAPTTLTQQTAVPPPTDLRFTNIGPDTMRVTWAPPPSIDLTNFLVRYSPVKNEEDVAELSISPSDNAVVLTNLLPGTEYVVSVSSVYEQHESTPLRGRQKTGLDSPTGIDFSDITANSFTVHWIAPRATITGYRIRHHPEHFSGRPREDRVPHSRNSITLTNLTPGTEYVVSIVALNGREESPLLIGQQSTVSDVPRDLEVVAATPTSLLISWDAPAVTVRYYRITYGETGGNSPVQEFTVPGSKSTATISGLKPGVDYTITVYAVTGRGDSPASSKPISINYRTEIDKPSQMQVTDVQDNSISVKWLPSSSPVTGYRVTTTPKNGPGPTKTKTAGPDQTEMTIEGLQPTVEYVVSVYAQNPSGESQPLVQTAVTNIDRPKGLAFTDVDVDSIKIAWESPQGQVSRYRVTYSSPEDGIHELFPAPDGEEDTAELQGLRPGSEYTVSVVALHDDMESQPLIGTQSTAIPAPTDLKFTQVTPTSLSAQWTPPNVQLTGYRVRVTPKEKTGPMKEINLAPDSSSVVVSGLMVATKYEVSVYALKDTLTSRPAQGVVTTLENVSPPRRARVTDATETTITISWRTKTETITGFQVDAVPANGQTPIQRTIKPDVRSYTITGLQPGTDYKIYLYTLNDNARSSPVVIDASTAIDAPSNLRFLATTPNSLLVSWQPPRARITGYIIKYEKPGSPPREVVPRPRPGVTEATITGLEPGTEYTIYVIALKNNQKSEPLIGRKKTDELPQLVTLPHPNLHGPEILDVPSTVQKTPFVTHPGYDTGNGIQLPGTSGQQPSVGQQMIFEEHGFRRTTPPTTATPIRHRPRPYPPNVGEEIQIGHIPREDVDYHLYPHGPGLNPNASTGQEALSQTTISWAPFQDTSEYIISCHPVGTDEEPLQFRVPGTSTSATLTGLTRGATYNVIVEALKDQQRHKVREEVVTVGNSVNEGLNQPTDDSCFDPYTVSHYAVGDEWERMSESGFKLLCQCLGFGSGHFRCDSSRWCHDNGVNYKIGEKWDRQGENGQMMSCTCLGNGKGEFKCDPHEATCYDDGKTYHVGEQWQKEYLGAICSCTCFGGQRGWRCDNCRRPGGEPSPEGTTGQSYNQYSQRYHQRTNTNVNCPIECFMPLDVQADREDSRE

Consider “monoclonal antibody FDC-6, produced by the hybridoma ATCC HB 9018”, for which the reflectance signal turned out to be 0.315.
